Tested on: Escherichia coli TOP10
Assay: shrunken log2 fold change of peptide-encoding DNA abundance (4.5 h post-induction vs induction); higher = less antimicrobial activity (less host growth inhibition)
Details: time post-induction: 4.5 h; library: site-saturation at positions 5, 18, 19, 20
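Also: peptides expressed intracellularly from a pBAD plasmid library in pooled LB shake-flask culture, induced with 0.3% L-arabinose, DNA abundance read by NGS, three biological replicates, DESeq2 with apeglm shrinkage.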

Sequence	shrunken log2 fold change
RRIRCRPPRLPRPRPRPNRPPRP	-0.0846
RRIRGRPPRLPRPRPRPPPKPRP	1.7
RRIRCRPPRLPRPRPRPFWHPRP	-0.0854
RRIRNRPPRLPRPRPRPNEPPRP	-0.000856
RRIRTRPPRLPRPRPRPWSRPRP	-0.0291
RRIRNRPPRLPRPRPRPKSIPRP	-0.569
RRIRHRPPRLPRPRPRPTPYPRP	-0.0416
RRIRPRPPRLPRPRPRPGLFPRP	0.162
RRIRTRPPRLPRPRPRPAEWPRP	0.0396
RRIRRRPPRLPRPRPRPEWNPRP	0.471
RRIRKRPPRLPRPRPRPIVLPRP	-0.299
RRIRGRPPRLPRPRPRPCKKPRP	0.00863
RRIRPRPPRLPRPRPRPYNVPRP	-0.0809
RRIRMRPPRLPRPRPRPHAAPRP	1.63
RRIRARPPRLPRPRPRPYGRPRP	0.0766
RRIRDRPPRLPRPRPRPSKVPRP	-0.152
RRIRWRPPRLPRPRPRPICGPRP	0.0975
RRIRPRPPRLPRPRPRPYRMPRP	0.0542
RRIRTRPPRLPRPRPRPEWEPRP	0.0583
RRIRYRPPRLPRPRPRPGEAPRP	0.124
RRIRSRPPRLPRPRPRPSPVPRP	-0.0362
RRIRFRPPRLPRPRPRPPLWPRP	0.46
RRIRERPPRLPRPRPRPVASPRP	-0.0471
RRIRERPPRLPRPRPRPFQPPRP	-0.311
RRIRPRPPRLPRPRPRPRFNPRP	-0.181

Sequence	shrunken log2 fold change
RRIRLRPPRLPRPRPRPYGDPRP	-0.0122
RRIRQRPPRLPRPRPRPYGAPRP	-0.0876
RRIRSRPPRLPRPRPRPWSAPRP	-0.027
RRIRSRPPRLPRPRPRPSCMPRP	-0.129
RRIRWRPPRLPRPRPRPEAVPRP	1.05
RRIRTRPPRLPRPRPRPVFRPRP	-0.516
RRIRHRPPRLPRPRPRPCGKPRP	-0.00804
RRIRARPPRLPRPRPRPEIAPRP	0.992
RRIRYRPPRLPRPRPRPWPPPRP	0.194
RRIRARPPRLPRPRPRPGCRPRP	0.609
RRIRGRPPRLPRPRPRPPVRPRP	0.859
RRIRSRPPRLPRPRPRPCVRPRP	-0.103
RRIRDRPPRLPRPRPRPIYAPRP	-0.288
RRIRPRPPRLPRPRPRPKLGPRP	0.551
RRIRMRPPRLPRPRPRPIAPPRP	0.47
RRIRIRPPRLPRPRPRPNHYPRP	-0.492
RRIRIRPPRLPRPRPRPRRCPRP	0.221
RRIRRRPPRLPRPRPRPFADPRP	-0.0461
RRIRYRPPRLPRPRPRPAMVPRP	-0.136
RRIRMRPPRLPRPRPRPWNFPRP	-0.0756
RRIRRRPPRLPRPRPRPDTNPRP	1.31
RRIRIRPPRLPRPRPRPYWIPRP	-0.568
RRIRHRPPRLPRPRPRPNDQPRP	-0.169
RRIRERPPRLPRPRPRPGFDPRP	0.0961
RRIRERPPRLPRPRPRPNQRPRP	-0.0506
